Assays:
mouse IgG = details: literature IgG-binding peptide listed in Table 3; read-out: KD (equilibrium dissociation constant), literature value; cited from earlier work
Excerpt: Table 3 Equilibrium dissociation constants (KD) for peptide mouse IgG interaction determined by SPR. | column: KD, µM

[1] = target: polyclonal mouse IgG (mouse); assay: SPR; antibody immobilised by amine coupling on an HC200 chip (Reichert SR7500DC); peptides flowed in HBS-EP (pH 7.4, 0.01 M HEPES, 0.15 M NaCl, 3 mM EDTA, 0.005% Tween 20); multiple kinetics mode

In the case of HWRGWV, the Kd (mouse IgG) is given as 10 µM.

For HFRRHL, the Kd (mouse IgG) is listed as 26 µM.

For GIHPFGR [IgG BP 2], the Kd [1] was 50 µM.

With GRIHGPR [IgG BP 1] the Kd [1] was 14 µM.

For SHSGIFR [IgG BP 4], the Kd [1] was 60 µM.

Molecule GEPFSIP [IgG BP 3] has a Kd [1] of 20 µM.
